According to publication PMC11539623 (Biochimica et biophysica acta. Gene regulatory mechanisms, 2023):

Biological target: T1, His-tagged full length Taf14 (S. cerevisiae, UniProt P35189 1-244, labeled with His-Tag Labeling Kit RED-tris-NTA (2nd Generation))
T1 sequence (looked up): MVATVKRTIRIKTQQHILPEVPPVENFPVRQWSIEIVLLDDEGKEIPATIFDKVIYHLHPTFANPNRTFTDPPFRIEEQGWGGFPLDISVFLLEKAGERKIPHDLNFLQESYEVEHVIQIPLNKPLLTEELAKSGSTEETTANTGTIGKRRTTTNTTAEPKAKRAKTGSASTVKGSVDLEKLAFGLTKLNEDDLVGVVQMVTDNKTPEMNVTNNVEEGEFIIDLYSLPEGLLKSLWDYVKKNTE
Experiment: MST

- fold weaker binding than the isolated Taf14ET: 7 fold
Binder: GHSLLLSIKLPG (peptide, UniProt P18480 782-793, looked up) [Snf5 ET domain binding motif peptide (aa 782-793)]
